Measured values as given in patent US20030113828A1, “Compositions and methods for modulating Syk function” (priority 2001, published 2003).
Where two headings read alike, the source gives them in different places. Values belong to the molecule of their own block, whether it stands above or below them. Square brackets hold non-standard residues; d marks the D form. Ends that are not written are not given here. Peptide text beside a SMILES is read from it. pY = N[C@@H](Cc1ccc(OP(=O)(O)O)cc1)C(=O)O

Legend:
Syk(6-370) = Syk(6-370) (Homo sapiens, UniProt P43405); conditions: Ottinger et al. 1998, cited from earlier work
Syk [1] = target: T1, Syk (Homo sapiens, UniProt P43405); test: Syk kinase activation in vitro; type: biochemical
[2] = target: T2, binding of Syk(6-370) to the β3 tail (Homo sapiens, UniProt P43405); test: pITAM peptide competition in direct binding assay; conditions: soluble pITAM peptide 40 μM, 8000-fold molar excess
T2 construct: made in house; host or cells: bacteria (pGEX vector, IPTG induction)
Method: To verify that the Syk-β3 interaction is pITAM-independent mechanism, the effect of 8000-fold molar excess of PITAM peptides on binding of Syk(6-370) to the β3 tail was examined. […] Similar data were obtained in a quantitative enzyme-linked immunosorbent assay. The FcεRIγ pITAM peptides were functional, as they activated Syk kinase (EC50 1-2 μM) in vitro (Shiue et al.(1995) J Biol Chem 270:10498-10502). Thus, Syk recognition of β3 involves a unique specificity, distinct from Syk's interaction with pITAMs.
(§1) Following incubation, beads were washed and bound protein was analyzed by immunoblotting.

[3] = target: T3, integrin β3 cytoplasmic tail (Homo sapiens, UniProt P05106); test: Affinity chromatography/direct binding of kinase fragments to integrin tail; conditions: recombinant fragments, direct binding assay
T3 construct: made in house
T3 sequence (P05106 742-788 limits assumed): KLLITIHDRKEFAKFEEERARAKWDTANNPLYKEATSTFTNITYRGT
Method: as §1
(§2) For direct binding assays, model peptides (1 mg) were dissolved in 1 ml buffer containing 20 mM Tris (pH 7.9), 500 mM NaCl, and 6 M urea. To this, 50 ul packed His-Bind® Resin (Novagen, Madison, Wis.) was added and the mixture was rotated for 1 hour at room temperature. Immobilized peptides were washed 5× in above buffer without urea, and resuspended in 500 μl buffer containing 20 mM PIPES pH 6.8, 50 mM NaCl, 3 mM MgCl2, 150 mM sucrose, 50 mM NaF, 40 mM Na4P2O7*10H2O (buffer A) supplemented with 0.1% TritonX-100 and 3 mM MgCl2. Purified GST-fusion proteins were added to 0.5 ml buffer A supplemented with 0.1% TritonX-100 and 3 mM MgCl2. Five μl of total packed resin loaded with various integrin cytoplasmic domain model proteins was added to the GST-fusion protein. The mixture was incubated for 40 minutes at room temperature with continuous rotation. The beads were then washed five times in buffer A with 0.1% TritonX-100 and 3 mM MgCl2. Bound proteins were eluted by boiling in reducing sample buffer, fractionated by SDS PAGE, and immuno-blotted.

Syk [4] = target: T1, Syk; test: Affinity chromatography/direct binding of integrin tail model proteins to Syk; parameters: made in house; host or cells: bacteria (pGEX vector, IPTG induction)
Method: (§3) Model protein mimics of integrin cytoplasmic domains αIIb, β1A, and β3 were prepared in accordance with procedures described by Pfaff et al. (1998) J Biol Chem 273:6104-6109). The β2 integrin cytoplasmic domain model protein was developed by PCR amplification of β2 cDNA using 5′-[…] (SEQ ID NO:7) and 3′-[…] (SEQ ID NO:8) primers. This primer set introduced a 5′ HindIII restriction site into the N-terminal region of the β2 cytoplasmic domain, resulting in the mutation, A725L. The 3′ primer contained a BamHI restriction site immediately downstream of dual stop codons. The PCR product was cloned into pCR2.1 as described in the TA Cloning® system (Invitrogen, Carlsbad, Calif.). After sequencing, pCR2.1-β2cyt was digested with BamHI and HindIII, and subcloned into a modified bacterial expression plasmid pET15bm (lacking the HindIII restriction site). All model proteins were verified by sequence analysis, expressed, HPLC purified and verified by electrospray ionization mass spectroscopy as described by Pfaff et al. ((1998) J Biol Chem 273:6104-6109).
as §1, §2

Zap-70 [5] = test: Affinity chromatography/direct binding of integrin tail model proteins to Zap-70; parameters: species or system human; conditions: Zap-70 from cell lysates
Method: (§4) A cDNA encoding residues 1-337 of human Zap-70 was cloned into pGEX-2T (Amersham Pharmacia Biotech).
as §3, §1
as §2, with “The beads were then washed five times in buffer A with 0.1% TritonX-100 and 3 mM MgCl2. Bound proteins were eluted by boiling in reducing sample buffer, fractionated by SDS PAGE, and immuno-blotted.” left out

Zap-70 [6] = target: T4, Zap-70 (Homo sapiens, UniProt P43403); test: as above; conditions: recombinant fragment, direct binding
T4 construct: A cDNA encoding residues 1-337 of human Zap-70 was cloned into pGEX-2T; made in house; host or cells: bacteria (pGEX-2T, IPTG induction)
T4 sequence (P43403 1-337): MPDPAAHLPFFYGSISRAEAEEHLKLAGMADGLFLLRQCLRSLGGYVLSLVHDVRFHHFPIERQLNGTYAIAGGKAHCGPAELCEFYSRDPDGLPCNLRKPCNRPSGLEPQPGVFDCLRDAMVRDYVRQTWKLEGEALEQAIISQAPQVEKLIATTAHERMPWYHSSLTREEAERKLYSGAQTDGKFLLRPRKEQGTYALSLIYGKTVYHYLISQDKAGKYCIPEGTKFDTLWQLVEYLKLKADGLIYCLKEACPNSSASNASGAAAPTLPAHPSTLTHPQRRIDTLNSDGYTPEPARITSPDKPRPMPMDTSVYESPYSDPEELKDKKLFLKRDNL
Method: as §4, §3, §1
as §2, with “The beads were then washed five times in buffer A with 0.1% TritonX-100 and 3 mM MgCl2. Bound proteins were eluted by boiling in reducing sample buffer, fractionated by SDS PAGE, and immuno-blotted.” left out

[7] = target: T5, Syk binding to the β3 tail model proteins (Homo sapiens, UniProt P43405); test: β3 peptide competition in direct binding assay; conditions: peptide 1×10^−4 M, Syk 5×10^−9 M
T5 construct: made in house; host or cells: bacteria (pGEX vector, IPTG induction)
Method: Phosphorylation of the β3 integrin cytoplasmic domain occurs as a consequence of integrin engagement (Law et al. (1996) J Biol Chem 271:10811-10815). To determine if phosphorylation of the β3 cytoplasmic domain could affect Syk binding, competition assays were performed using tyrosine phosphorylated or non-phosphorylated peptides in the context of the last 23 amino acids of the β3 cytoplasmic domain. Peptides were used at a concentration 1×10^−4 M, and Syk was used at a concentration of 5×10^−9 M. The non-phosphorylated peptide competed for integrin β3 tail binding to Syk. In three experiments, there was a 52±3.4% decrease in Syk binding to the β3 tail model proteins in the presence of non-phosphorylated β3-23 peptide as compared to the phosphorylated peptide (β3-23P). […] Furthermore, phosphorylation of β3(Y747,759) reduces its capacity to compete for Syk binding to the unphosphorylated β3 tail.
as §2, with “The beads were then washed five times in buffer A with 0.1% TritonX-100 and 3 mM MgCl2. Bound proteins were eluted by boiling in reducing sample buffer, fractionated by SDS PAGE, and immuno-blotted.” left out
For peptide competition assays, peptides were pre-incubated with Syk(6-370) for one hour before direct binding assays were performed. Peptides were used at a concentration of 1×10^−4 M, and Syk(6-370) was used at a concentration of 2×10^−9 M. Bound Syk was detected as described above. […]

[8] = recombinant fragment, direct binding

- EC50 (Syk [1]): 1000 to 2000 nM
Molecule: CC(C)C[C@H](NC(=O)CNC(=O)[C@@H](NC(=O)[C@H](Cc1ccc(OP(=O)(O)O)cc1)NC(=O)[C@@H](NC(=O)CNC(=O)[C@@H](N)CC(=O)O)C(C)C)[C@@H](C)O)C(=O)N[C@@H](CO)C(=O)N[C@H](C(=O)N[C@@H](CCCNC(=N)N)C(=O)N[C@@H](CC(N)=O)C(=O)N[C@@H](CCC(N)=O)C(=O)N[C@@H](CCC(=O)O)C(=O)N[C@H](C(=O)N[C@@H](Cc1ccc(OP(=O)(O)O)cc1)C(=O)N[C@@H](CCC(=O)O)C(=O)N[C@H](C(=O)N[C@@H](CC(C)C)C(=O)N[C@@H](CCCCN)C(=O)N[C@H](C(=O)N[C@@H](CS)C(=O)N[C@@H](CCCNC(=N)N)C(=O)O)[C@@H](C)O)[C@@H](C)O)[C@@H](C)O)[C@@H](C)O [FcεRIγ ITAM peptide, DGVY(PO3)TGLSTRNQETY(PO3)ETLKTCR (SEQ ID NO:1)] (H-DGV[pY]TGLSTRNQET[pY]ETLKTCR-OH)
- Kd (Syk(6-370); read-out: affinity of Syk for the dually phosphorylated FcεRIγ-ITAM): 2.6 nM
- Kd (Syk(6-370); reported, read-out: Kd for the interaction between Syk(6-370) and the FcεRIγ pITAM peptide): 2.6 nM

- competition with the β3 integrin cytoplasmic tail for binding to Syk(6-370) [2]: failed to compete
Molecule: NQLY(PO3)NELNLGRREEY(PO3)DVLV (SEQ ID NO:2) (NQL[pY]NELNLGRREE[pY]DVLV) [dually-phosphorylated TCRξ chain ITAM peptide]

- binding to the β3 tail [3]: failed to bind
Molecule: Syk(163-270): Syk fragment containing only the C-terminal SH2 domain

- binding to the β3 tail [3]: bound
Molecule: Syk(R195A): C-terminal SH2 domain mutant of Syk deficient in binding to pITAMs

Molecule: Zap-70(1-162): N-terminal SH2 domain of Zap-70 with its intact IA domain
- binding to the β3 tail [3]: bound β3 to a similar extent as the tandem SH2 domains

- binding to the β3 tail [3]: did not bind
Molecule: tandem SH2 domains of SHP-2: tandem SH2 domains of SHP-2

- binding of Syk to integrin tail model protein (Syk [4]; Syk from cell lysates): no detectable binding
- binding of Syk to integrin tail model protein (Syk [4]; [8]): No binding was detected
- binding of Zap-70 to integrin tail model protein (Zap-70 [5]): no detectable binding
- binding of Zap-70 to integrin tail model protein (Zap-70 [6]): No binding was detected
Molecule: αIIb tail: αIIb integrin cytoplasmic tail model protein (KVGFFKRNRPPLEEDDEEGE; not fully specified)

- binding of Syk to integrin tail model protein (Syk [4]; [8]): abolished
Molecule: β3(759X): β3 tail with deletion of the last 4 C-terminal residues (KLLITIHDRKEFAKFEEERARAKWDTANNPLYKEATSTFTNIT; not fully specified)

- competition for integrin β3 tail binding to Syk [7]: competed
- decrease in Syk binding to the β3 tail model proteins ([7]; three experiments, compared to the phosphorylated peptide (β3-23P)): 52±3.4%
Molecule: β3-23 peptide: non-phosphorylated peptide of the last 23 amino acids of the β3 cytoplasmic domain (DTANNPLYKEATSTFTNITYRGT)

- competition for integrin β3 tail binding to Syk [7]: did not detectably compete
Molecule: β3-23P: tyrosine phosphorylated peptide of the last 23 amino acids of the β3 cytoplasmic domain (DTANNPLYKEATSTFTNITYRGT; also: tyrosine phosphorylated, site not given here) [reference compound]

- binding of Syk to integrin tail model protein (Syk [4]; Syk from cell lysates): bound
- binding of Zap-70 to integrin tail model protein (Zap-70 [5]): bound
Molecule: β3: recombinant model protein mimic of dimerized integrin β3 cytoplasmic tail (KLLITIHDRKEFAKFEEERARAKWDTANNPLYKEATSTFTNITYRGT; also: dimerised via Fc or GST (left off))

- binding of Syk to integrin tail model protein (Syk [4]; [8]): abolished
Molecule: β3752X: β3 tail with removal of 11 C-terminal residues Thr752-Thr762 (KLLITIHDRKEFAKFEEERARAKWDTANNPLYKEAT; not fully specified)
